Results on one molecule are retold here after US20220356213A1 (MAX PLANCK GESELLSCHAFT ZUR F RDERUNG DER WISSENSCHAFTEN E V, published 2022).

This assay concerns the target T1, TMH-FLAG-(L1)-iLID.
T1 chain: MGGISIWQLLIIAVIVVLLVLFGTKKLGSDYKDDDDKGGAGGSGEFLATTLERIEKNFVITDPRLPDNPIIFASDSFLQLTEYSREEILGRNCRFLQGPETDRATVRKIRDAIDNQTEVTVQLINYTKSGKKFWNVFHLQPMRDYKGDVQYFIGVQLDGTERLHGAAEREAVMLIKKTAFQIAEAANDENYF
Kind of assay: cell-based or functional assay.

B1: SspB_Nano-SctQ (other)
chain: MSLRSGAGSSPKRPKLLREYYDWLVDNSFTPYLVVDATYLGVNVPVEYVKDGQIVLNLSASATGNLQLTNDFIQFNARFKGVSRELYIPMGAALAIYARENGDGVMFEPEEIYDELNIGGAGELGGSGGSGGSLLTLPQAKLSELSLRQRLSHYRQNYLWEEGKLELTVSEPPSSLNCILQLQWKGTHFTLYCFGDDLANWLTPDLLGAPFSTLPKELQLALLERQTVFLPKLVCNDIATASLSVTQPLLSLRLSRDNAHISFWLTSAEALFALLPARPNSERIPLPILLSLRWHKVYLTLDEVDSLRLGDVLLAPEGSGPNSPVLAYVGENPWGYFQLQSNKLEFIGMSHESDELNPKPLTDLNQLPVQVSFEVGRQILDWHTLTSLEPGSLIDLTTPVDGEVRLLANGRLLGHGRLVEIQGRLGVRIERLTEVTIS
For B1, the “L/D ratio of export of heterologous cargo YopE1-53-NanoLuc-FLAG, LITESEC-supp2” value was less than 0.02; the “L/D ratio of export of heterologous cargo, LITESEC-supp2” value came out at 0.01; the “export of heterologous cargo, LITESEC-supp2, dark” value worked out at 205 % WT secretion; the “export of heterologous cargo, LITESEC-supp2, light” value worked out at 2 % WT secretion. In addition, the “light/dark secretion ratio (L/D ratio), LITESEC-supp1, native T3SS substrates, in vitro secretion assay” value was found to be 0.28 and the “light/dark secretion ratio (L/D ratio), LITESEC-supp2 (anchor from pACYC184), native T3SS substrates” value amounted to 0.26.
